Experimental data published in paper PMC5339343, “Evaluation of Rint1 as a modifier of intestinal tumorigenesis and cancer risk” (PLoS ONE, 2017).

Assays:
[1] = molecular target: T1, FLAG-tagged full-length human RINT1 I152M (human, UniProt Q6NUQ1 1-792, I152M); assay: co-IP; FLAG-RINT1 plasmids co-transfected with the UVRAG plasmid into HEK293T; lysate in TNE buffer (10 mM Tris acetate, 0.5% NP-40, 2 mM EDTA); anti-FLAG M2 affinity gel overnight, eluted with FLAG peptide; blot for UVRAG, quantified; details: partners not purified
T1 construct: The change copies a variant of the B6 mouse Rint1 allele into human RINT1; The results sentence on UVRAG prints I152T; the methods made only I152M; also called RINT1 n.456A>G (I152M); RINT1 I152M allele; source: HEK293T, transfected, in lysate

[2] = molecular target: T2, FLAG-tagged full-length human RINT1 I152M; I168T (human, UniProt Q6NUQ1 1-792, I152M | I168T); assay: as above; details: partners not purified
T2 construct: The results sentence on UVRAG prints I152T;I168T; the methods made only I152M and I168T together; also called RINT1 n.456A>G; n.503T>C (I152M and I168T); source: HEK293T, transfected, in lysate
T2 sequence (Q6NUQ1 whole entry I152M/I168T): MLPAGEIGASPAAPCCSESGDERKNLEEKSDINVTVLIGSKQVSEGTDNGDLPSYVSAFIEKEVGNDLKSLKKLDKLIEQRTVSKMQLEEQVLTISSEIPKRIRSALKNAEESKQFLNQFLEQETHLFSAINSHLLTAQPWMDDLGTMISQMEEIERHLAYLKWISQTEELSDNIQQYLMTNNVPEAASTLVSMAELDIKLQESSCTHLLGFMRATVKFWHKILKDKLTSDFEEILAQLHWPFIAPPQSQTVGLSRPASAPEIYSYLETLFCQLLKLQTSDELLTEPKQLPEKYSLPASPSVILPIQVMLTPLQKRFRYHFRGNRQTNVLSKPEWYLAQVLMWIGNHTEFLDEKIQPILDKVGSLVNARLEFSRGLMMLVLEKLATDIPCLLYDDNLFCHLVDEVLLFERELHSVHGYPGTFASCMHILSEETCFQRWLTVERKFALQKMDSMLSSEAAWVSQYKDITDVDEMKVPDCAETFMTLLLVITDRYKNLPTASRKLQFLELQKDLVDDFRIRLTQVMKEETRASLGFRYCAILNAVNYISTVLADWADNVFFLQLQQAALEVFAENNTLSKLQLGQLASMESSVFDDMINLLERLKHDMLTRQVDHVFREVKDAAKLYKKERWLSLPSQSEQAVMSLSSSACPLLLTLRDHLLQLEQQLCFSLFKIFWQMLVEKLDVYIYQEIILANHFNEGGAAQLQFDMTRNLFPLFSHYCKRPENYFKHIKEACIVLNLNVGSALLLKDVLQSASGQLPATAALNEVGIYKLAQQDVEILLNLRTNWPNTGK

T1 sequence (Q6NUQ1 whole entry I152M): as the sequence (Q6NUQ1 whole entry I152M/I168T) above, with T168I counted along it

B1: UVRAG expressed from pCl-neo-HA-hUVRAG (natural protein, human, UniProt Q9P2Y5 1-699, looked up)
chain: MSASASVGGPVPQPPPGPAAALPPGSAARALHVELPSQQRRLRHLRNIAARNIVNRNGHQLLDTYFTLHLCSTEKIYKEFYRSEVIKNSLNPTWRSLDFGIMPDRLDTSVSCFVVKIWGGKENIYQLLIEWKVCLDGLKYLGQQIHARNQNEIIFGLNDGYYGAPFEHKGYSNAQKTILLQVDQNCVRNSYDVFSLLRLHRAQCAIKQTQVTVQKIGKEIEEKLRLTSTSNELKKKSECLQLKILVLQNELERQKKALGREVALLHKQQIALQDKGSAFSAEHLKLQLQKESLNELRKECTAKRELFLKTNAQLTIRCRQLLSELSYIYPIDLNEHKDYFVCGVKLPNSEDFQAKDDGSIAVALGYTAHLVSMISFFLQVPLRYPIIHKGSRSTIKDNINDKLTEKEREFPLYPKGGEKLQFDYGVYLLNKNIAQLRYQHGLGTPDLRQTLPNLKNFMEHGLMVRCDRHHTSSAIPVPKRQSSIFGGADVGFSGGIPSPDKGHRKRASSENERLQYKTPPPSYNSALAQPVTTVPSMGETERKITSLSSSLDTSLDFSKENKKKGEDLVGSLNGGHANVHPSQEQGEALSGHRATVNGTLLPSEQAGSASVQLPGEFHPVSEAELCCTVEQAEEIIGLEATGFASGDQLEAFNCIPVDSAVAVECDEQVLGEFEEFSRRIYALNENVSSFRRPRRSSDK
notes: UVRAG, human (hUVRAG), from the plasmid pCl-neo-HA-hUVRAG (Itakura et al. 2008); Detected with an anti-UVRAG antibody; source: HEK293T, transfected, in lysate
B1 was tested, and the “fold change of UVRAG co-immunoprecipitation against wild-type RINT1” value [1] was at least 2 fold and the “fold change of UVRAG co-immunoprecipitation against wild-type RINT1” value [2] was at least 2 fold.
